Experimental data reported in US20220259278A1 (PROGEN, published 2022).

T1: human CD154 (human, UniProt P29965 113-261, limits assumed)
T1 construct: Coupled to amine reactive (AR2G) biosensors at 5 ug/ml; also called hCD154; CD40L
T1 sequence (looked up): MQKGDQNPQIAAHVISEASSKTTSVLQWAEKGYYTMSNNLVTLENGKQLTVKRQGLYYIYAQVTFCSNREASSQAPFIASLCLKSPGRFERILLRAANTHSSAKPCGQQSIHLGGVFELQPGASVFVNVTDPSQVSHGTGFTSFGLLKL

B1: chimeric anti-CD154 antibody C10M (antibody, V domains shown, not shown: a dimerising Fc or GST)
VH: EVQLQQSGSELVKPGASVKLSCKASGYIFTSYYMYWVKQRPGQGLEWIGEINPSNGDTNFNEKFKSKATLTVDKSSSTAYMQLISLTSEDSAVYYCTRSDGRNDMDSWGQGTTVTVSS
VL: DIQLTQSPASLAVSLGQRATISCRASQRVSSSTYSYMHWYQQKPGQPPKLLIKYASNLESGVPARFSGSGSGTDFTLNIHPVEEEDSATYYCQHSWEIPPTFGGGTKLEIKR
notes: Mouse-derived anti-CD154 Fab with a mutant human IgG1 Fc region; also called anti-CD154 chimeric antibody
B2: chimeric hybrid antibody PG-400-1 (antibody, V domains shown)
VH: B1 VH
VL: B1 VL
B3: GLP-1E-Fc fusion protein PG-11 (Fc fusion)
chain: HGEGTFTSDVSSYLEGQAAKEFIAWLVKGGPSSGAPPPSGGGGSGGGGSGGGGSEKEKEEQEERTHTCPPCPSHTQPLGVFLFPPKPKDQLMISRTPEVTCVVVDVSQEDPEVQFNWYVDGVEVHNAKTKPREEQFNSTYRVVSVLTVLHQDWLNGKEYKCKVSNKGLPSSIEKTISKAKGQPREPQVYTLPPSQEEMTKNQVSLTCLVKGFYPSDIAVEWESNGQPENNYKTTPPVLDSDGSFFLYSRLTVDKSRWQEGNVFSCSVLHEALHNHYTQKSLSLSLGK
notes: 6 entered; also called modified Fc region protein; fusion protein containing NTIG

Assays:
human CD154 = target: T1, human CD154; experiment: BLI (Octet K2), CD154 amine-coupled to AR2G sensor, antibody in solution; average
Protocol: To this end, the present inventors first attached CD154 protein to 96-well plates using Dip and Read™ Amine Reactive 2nd Generation (AR2G) Reagent Kit (forteBio, Cat No. 18-5092). Specifically, after dispensing 200 μl of DW in a 96-well plate, an amine biosensor included in the kit was inserted and hydrated for 10 minutes. Subsequently, after dispensing 200 μl of DW was additionally to the plate, EDC:NHS was mixed in a 1:1 ratio in a volume corresponding to 1/20 of the required sample, then diluted in DW, and 200 μl was dispensed into the 96-well plate. Subsequently, CD154 protein was diluted to 5 μg/ml in 10 mM acetate solution (pH 6.0), and 200 μl was dispensed into the 96-well plate. Then, 200 μl of 1 M ethanolamine was added to the 96-well plate, and the biosensor plate and the sample plate were inserted into Octet® K2 BLI analyzer and signals were measured. After the measurement was completed, 200 μl of the 1× Kinetics buffer was added to the sample plate, and then a baseline was determined.

Fc gamma receptor I = target: T2, Fc gamma receptor I (UniProt P12314 16-288, limits assumed); experiment: BLI, fitting view, three repeats
T2 construct: also called FcγRI
T2 sequence (P12314 16-288 limits assumed): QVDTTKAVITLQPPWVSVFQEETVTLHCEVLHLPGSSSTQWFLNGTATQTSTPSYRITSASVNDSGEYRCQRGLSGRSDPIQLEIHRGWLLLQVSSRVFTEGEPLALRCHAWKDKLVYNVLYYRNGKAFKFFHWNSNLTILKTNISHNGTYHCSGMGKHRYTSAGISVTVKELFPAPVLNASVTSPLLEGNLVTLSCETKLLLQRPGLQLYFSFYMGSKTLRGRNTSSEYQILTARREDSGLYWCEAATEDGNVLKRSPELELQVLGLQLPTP

Fc gamma receptor IIIa = target: T3, Fc gamma receptor IIIa (UniProt P08637 17-208); experiment: BLI, fitting view, three repeats
T3 construct: also called FcγRIIIa
T3 sequence (P08637 17-208 limits assumed): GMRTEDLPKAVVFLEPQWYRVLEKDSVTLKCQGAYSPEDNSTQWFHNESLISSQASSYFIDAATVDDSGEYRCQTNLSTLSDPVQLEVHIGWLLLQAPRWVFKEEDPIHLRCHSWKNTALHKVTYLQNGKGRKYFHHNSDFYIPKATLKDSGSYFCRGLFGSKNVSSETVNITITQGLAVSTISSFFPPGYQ

Binder	koff (human CD154) [s⁻¹]	kon (human CD154) [M⁻¹ s⁻¹]	binding result (Fc gamma receptor I)	binding result (Fc gamma receptor IIIa)
B1	< 1e-07	510000		
B2	< 1e-07	807000		
B3			no binding	no binding
